Here are results for 2 molecules from patent US20240109945A1 (UNIVERSITY OF GEORGIA RESEARCH FOUNDATION, published 2024).

Changes are numbered by the printed parent chain.

One assay has as its target T1, Asialofetuin (bovine, UniProt P12763 19-359, glycoprotein; desialylated form of Fetuin).
T1 construct: also called AF; desialylated Asialofetuin
T1 sequence (looked up): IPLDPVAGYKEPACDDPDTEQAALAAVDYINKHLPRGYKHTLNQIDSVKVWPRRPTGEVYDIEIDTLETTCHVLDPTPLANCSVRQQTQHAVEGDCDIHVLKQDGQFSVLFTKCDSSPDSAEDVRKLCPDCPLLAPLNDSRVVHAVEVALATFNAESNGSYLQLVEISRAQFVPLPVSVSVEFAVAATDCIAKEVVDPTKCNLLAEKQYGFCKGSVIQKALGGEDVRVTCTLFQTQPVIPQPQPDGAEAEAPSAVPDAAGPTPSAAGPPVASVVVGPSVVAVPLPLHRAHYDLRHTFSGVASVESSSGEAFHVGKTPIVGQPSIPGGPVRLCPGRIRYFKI
In words: Western blot, 1 µg glycoprotein, Fbs1 variant as probe. As for the experimental part:
(§1) Lanes of each blot are labelled to show results for samples (1 μg each) of glycoproteins Asialofetuin, Fetuin, RNase B, Ovalbumin, Horse Radish Peroxidase, and IgG polyclonal antibody from rabbit, and a non-glycosylated protein RNase A, that were separated by SDS-PAGE, blotted on nitrocellulose membrane, and probed with Fbs1-1 (left blot) or Fbs1-2 (right blot).

For a further assay, the target named is T2, Fetuin (bovine, UniProt P12763 19-359, heavily sialylated glycoprotein).
T2 sequence (looked up): T1 sequence (looked up)
Described as above. As for the experimental part: as §1

B1: Variant Fbs1-1 (designed binder)
chain: MGSSHHHHHHHHSSGENLYFQSHMASQQEGLVPEGSADEERDHWQQFYFLSKRRRNLLRNPCGEEDLEGWSDVEHGGDGWRVEELPGDNGVEFTQDDSVKKYFASSFEWCRKAQVIDLQAEGYWEELLDTTQPAIVVKDWYSGRTDAGSLYELTVRLLSENEDVLAEFATGQVAVPEDGSWMEISHTFIDYGPGVRFVRFEHGGQDSVYWKGWFGARVTNSSVWVEP
notes: Expressed in E. coli and purified by IMAC
As for B1, the binding result with Asialofetuin and with Fetuin was “binds” in each case.

B2: Variant Fbs1-2 (designed binder)
chain: B1 chain with F107Y, E108R
As for B2, the binding result with Asialofetuin and with Fetuin was “binds” each time.
